We go through eight substances from PMC9700832.

Assay [1] concerns the target Bacillus thuringiensis serovar israelensis LexA (B. thuringiensis serovar israelensis). Kind of assay: SPR; LexA immobilised on a CM5 chip (1200 to 1300 RU); analytes in three-fold dilutions (6-1458 nM), 180 s at 30 uL/min, 25 °C; 20 mM HEPES pH 7.4, 150 mM NaCl, 3 mM EDTA, 0.1 mg/mL BSA, 0.005% P20; apparent KD from steady-state affinity fits, two titrations.
Assay [2] concerns the target Staphylococcus aureus LexA (S. aureus). The description is as above.
Assay [3] has the same target. Kind of assay: SPR; […] (6-1458 nM), 180 s at 30 uL/min, 25 °C; 20 mM HEPES pH 7.4, 150 mM NaCl, 3 mM EDTA, 0.1 mg/mL BSA, 0.005% P20; […]. (In general: Surface plasmon resonance follows binding to a sensor surface in real time, without labels.)

On to “Bacillus thuringiensis uncharacterized protein M1QNS5 (natural protein)”, for which, in assay [1], the Kd is 365 nM.

Regarding “Staphylococcus aureus nucleoid-associated protein HU, purified recombinant (from UniProt Q5HFV0 1-90) (natural protein)”, the Kd in assay [2] was found to be 843 nM.

As for “gp7 of bacteriophage GIL01 (natural protein)”, the Kd in assay [2] was determined as 298 nM.

In the case of “tectiviral gp7 homolog from the phage found in Bacillus cereus HuB13-1 (natural protein)”, the Kd in assay [2] was 787 nM.

“tectiviral gp7 homolog from the phage found in Bacillus cereus VD184 (natural protein)”: in assay [2], the Kd worked out at 381 nM.

On to “tectiviral gp7 homolog from the phage found in Bacillus thuringiensis serovar aizawai (natural protein)”, for which the Kd in assay [2] was 302 nM.

“tectiviral gp7 homolog of Bacillus anthracis phage AP50 (natural protein)” came in with a Kd in assay [3] of 446 nM.

With “tectiviral gp7 homolog of Bacillus mycoides VDm034 phage Lima (natural protein)”, the Kd in assay [3] was 331 nM.
